# Values joined by “and” are separate entries in the source; they are usually repeats but may differ in a detail not shown here. Identical values can stand only once.
# T1: Mesyl-dFPR-ACC
# T1 sequence (peptide, N-terminal mesyl; D-Phe at position 1 (dF); C-terminal ACC fluorophore): FPR
# Tests used:
# [1] = target: Factor X (Homo sapiens (Human)) (UniProt P00742)
# Mesyl-dFPR-ACC = target: T1, Mesyl-dFPR-ACC
# Chain of Factor X (Homo sapiens (Human)) (P00742 41-488 limits assumed): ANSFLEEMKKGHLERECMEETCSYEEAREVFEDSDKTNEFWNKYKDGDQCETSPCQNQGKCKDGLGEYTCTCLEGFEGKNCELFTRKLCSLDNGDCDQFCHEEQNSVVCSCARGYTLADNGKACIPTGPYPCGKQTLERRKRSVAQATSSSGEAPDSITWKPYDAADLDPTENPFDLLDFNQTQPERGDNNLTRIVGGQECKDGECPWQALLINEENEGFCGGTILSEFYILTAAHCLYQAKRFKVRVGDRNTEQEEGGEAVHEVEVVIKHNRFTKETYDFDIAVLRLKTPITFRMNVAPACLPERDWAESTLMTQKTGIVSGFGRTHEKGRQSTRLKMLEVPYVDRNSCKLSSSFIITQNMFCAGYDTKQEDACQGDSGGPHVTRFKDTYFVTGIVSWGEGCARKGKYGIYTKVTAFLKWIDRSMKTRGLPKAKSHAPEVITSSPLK
"kcat/KM (M^-1s^-1), TF-dependent assay [1] [M⁻¹ s⁻¹]","kcat/KM, TF-independent assay [1]","Activity (µmol/sec/µmol), specific activity for mesyl-dFPR-ACC (µmol/sec/µmol) (Mesyl-dFPR-ACC)",Binder
1.17e+08,65.9 M⁻¹ s⁻¹,2.35,Q286R/M298Q/Q366N-FVIIa (enzyme) ANAFLEELRPGSLERECKEEQCSFEEAREIFKDAERTKLFWISYSDGDQCASSPCQNGGSCKDQLQSYICFCLPAFEGRNCETHKDDQLICVNENGGCEQYCSDHTGTKRSCRCHEGYSLLADGVSCTPTVEYPCGKIPILEKRNASKPQGRIVGGKVCPKGECPWQVLLLVNGAQLCGGTLINTIWVVSAAHCFDKIKNWRNLIAVLGEHDLSEHDGDEQSRRVAQVIIPSTYVPGTTNHDIALLRLHQPVVLTDHVVPLCLPERTFSERTLAFVRFSLVSGWGRLLDRGATALELQVLNVPRLMTQDCLQQSRKVGDSPNITEYMFCAGYSDGSKDSCKGDSGGPHATHYRGTWYLTGIVSWGNGCATVGHFGVYTRVSQYIEWLQKLMRSEPRPGVLLRAPFP
1.7e+08,40.7 M⁻¹ s⁻¹,3.07,T239V/Q286R/M298Q/H373F-FVIIa (enzyme) ANAFLEELRPGSLERECKEEQCSFEEAREIFKDAERTKLFWISYSDGDQCASSPCQNGGSCKDQLQSYICFCLPAFEGRNCETHKDDQLICVNENGGCEQYCSDHTGTKRSCRCHEGYSLLADGVSCTPTVEYPCGKIPILEKRNASKPQGRIVGGKVCPKGECPWQVLLLVNGAQLCGGTLINTIWVVSAAHCFDKIKNWRNLIAVLGEHDLSEHDGDEQSRRVAQVIIPSTYVPGTVNHDIALLRLHQPVVLTDHVVPLCLPERTFSERTLAFVRFSLVSGWGRLLDRGATALELQVLNVPRLMTQDCLQQSRKVGDSPNITEYMFCAGYSDGSKDSCKGDSGGPHATHYRGTWYLTGIVSWGQGCATVGFFGVYTRVSQYIEWLQKLMRSEPRPGVLLRAPFP
9.01e+07,81.6 M⁻¹ s⁻¹,0.78,Q286R/H373F-FVIIa (enzyme) ANAFLEELRPGSLERECKEEQCSFEEAREIFKDAERTKLFWISYSDGDQCASSPCQNGGSCKDQLQSYICFCLPAFEGRNCETHKDDQLICVNENGGCEQYCSDHTGTKRSCRCHEGYSLLADGVSCTPTVEYPCGKIPILEKRNASKPQGRIVGGKVCPKGECPWQVLLLVNGAQLCGGTLINTIWVVSAAHCFDKIKNWRNLIAVLGEHDLSEHDGDEQSRRVAQVIIPSTYVPGTTNHDIALLRLHQPVVLTDHVVPLCLPERTFSERTLAFVRFSLVSGWGRLLDRGATALELMVLNVPRLMTQDCLQQSRKVGDSPNITEYMFCAGYSDGSKDSCKGDSGGPHATHYRGTWYLTGIVSWGQGCATVGFFGVYTRVSQYIEWLQKLMRSEPRPGVLLRAPFP
1.36e+08,115 M⁻¹ s⁻¹,4.59,Q286R/M298Q/H373F-FVIIa (enzyme) ANAFLEELRPGSLERECKEEQCSFEEAREIFKDAERTKLFWISYSDGDQCASSPCQNGGSCKDQLQSYICFCLPAFEGRNCETHKDDQLICVNENGGCEQYCSDHTGTKRSCRCHEGYSLLADGVSCTPTVEYPCGKIPILEKRNASKPQGRIVGGKVCPKGECPWQVLLLVNGAQLCGGTLINTIWVVSAAHCFDKIKNWRNLIAVLGEHDLSEHDGDEQSRRVAQVIIPSTYVPGTTNHDIALLRLHQPVVLTDHVVPLCLPERTFSERTLAFVRFSLVSGWGRLLDRGATALELQVLNVPRLMTQDCLQQSRKVGDSPNITEYMFCAGYSDGSKDSCKGDSGGPHATHYRGTWYLTGIVSWGQGCATVGFFGVYTRVSQYIEWLQKLMRSEPRPGVLLRAPFP

# Second part, the binder before the results:
Binder,"kcat/KM (M^-1s^-1), TF-dependent assay [1] [M⁻¹ s⁻¹]","kcat/KM, TF-independent assay [1]","Activity (µmol/sec/µmol), specific activity for mesyl-dFPR-ACC (µmol/sec/µmol) (Mesyl-dFPR-ACC)"
Q366V-FVIIa (enzyme) ANAFLEELRPGSLERECKEEQCSFEEAREIFKDAERTKLFWISYSDGDQCASSPCQNGGSCKDQLQSYICFCLPAFEGRNCETHKDDQLICVNENGGCEQYCSDHTGTKRSCRCHEGYSLLADGVSCTPTVEYPCGKIPILEKRNASKPQGRIVGGKVCPKGECPWQVLLLVNGAQLCGGTLINTIWVVSAAHCFDKIKNWRNLIAVLGEHDLSEHDGDEQSRRVAQVIIPSTYVPGTTNHDIALLRLHQPVVLTDHVVPLCLPERTFSERTLAFVRFSLVSGWGQLLDRGATALELMVLNVPRLMTQDCLQQSRKVGDSPNITEYMFCAGYSDGSKDSCKGDSGGPHATHYRGTWYLTGIVSWGVGCATVGHFGVYTRVSQYIEWLQKLMRSEPRPGVLLRAPFP,5.48e+07,4.3 M⁻¹ s⁻¹,9.29
S52A/S60A/Q286R/H373F-FVIIa (enzyme) ANAFLEELRPGSLERECKEEQCSFEEAREIFKDAERTKLFWISYSDGDQCAASPCQNGGACKDQLQSYICFCLPAFEGRNCETHKDDQLICVNENGGCEQYCSDHTGTKRSCRCHEGYSLLADGVSCTPTVEYPCGKIPILEKRNASKPQGRIVGGKVCPKGECPWQVLLLVNGAQLCGGTLINTIWVVSAAHCFDKIKNWRNLIAVLGEHDLSEHDGDEQSRRVAQVIIPSTYVPGTTNHDIALLRLHQPVVLTDHVVPLCLPERTFSERTLAFVRFSLVSGWGRLLDRGATALELMVLNVPRLMTQDCLQQSRKVGDSPNITEYMFCAGYSDGSKDSCKGDSGGPHATHYRGTWYLTGIVSWGQGCATVGFFGVYTRVSQYIEWLQKLMRSEPRPGVLLRAPFP,9.44e+07,30.1 M⁻¹ s⁻¹,3.14
Q286R/H257A-FVIIa (enzyme) ANAFLEELRPGSLERECKEEQCSFEEAREIFKDAERTKLFWISYSDGDQCASSPCQNGGSCKDQLQSYICFCLPAFEGRNCETHKDDQLICVNENGGCEQYCSDHTGTKRSCRCHEGYSLLADGVSCTPTVEYPCGKIPILEKRNASKPQGRIVGGKVCPKGECPWQVLLLVNGAQLCGGTLINTIWVVSAAHCFDKIKNWRNLIAVLGEHDLSEHDGDEQSRRVAQVIIPSTYVPGTTNHDIALLRLHQPVVLTDAVVPLCLPERTFSERTLAFVRFSLVSGWGRLLDRGATALELMVLNVPRLMTQDCLQQSRKVGDSPNITEYMFCAGYSDGSKDSCKGDSGGPHATHYRGTWYLTGIVSWGQGCATVGHFGVYTRVSQYIEWLQKLMRSEPRPGVLLRAPFP,–,4.3 M⁻¹ s⁻¹ and 2.5 M⁻¹ s⁻¹,1.96
T239V/Q286R/H373F-FVIIa (enzyme) ANAFLEELRPGSLERECKEEQCSFEEAREIFKDAERTKLFWISYSDGDQCASSPCQNGGSCKDQLQSYICFCLPAFEGRNCETHKDDQLICVNENGGCEQYCSDHTGTKRSCRCHEGYSLLADGVSCTPTVEYPCGKIPILEKRNASKPQGRIVGGKVCPKGECPWQVLLLVNGAQLCGGTLINTIWVVSAAHCFDKIKNWRNLIAVLGEHDLSEHDGDEQSRRVAQVIIPSTYVPGTVNHDIALLRLHQPVVLTDHVVPLCLPERTFSERTLAFVRFSLVSGWGRLLDRGATALELMVLNVPRLMTQDCLQQSRKVGDSPNITEYMFCAGYSDGSKDSCKGDSGGPHATHYRGTWYLTGIVSWGQGCATVGFFGVYTRVSQYIEWLQKLMRSEPRPGVLLRAPFP,1.06e+08,12.2 M⁻¹ s⁻¹,1.53
S222A/H257A/Q286R/Q366V-FVIIa (enzyme) ANAFLEELRPGSLERECKEEQCSFEEAREIFKDAERTKLFWISYSDGDQCASSPCQNGGSCKDQLQSYICFCLPAFEGRNCETHKDDQLICVNENGGCEQYCSDHTGTKRSCRCHEGYSLLADGVSCTPTVEYPCGKIPILEKRNASKPQGRIVGGKVCPKGECPWQVLLLVNGAQLCGGTLINTIWVVSAAHCFDKIKNWRNLIAVLGEHDLSEHDGDEQARRVAQVIIPSTYVPGTTNHDIALLRLHQPVVLTDAVVPLCLPERTFSERTLAFVRFSLVSGWGRLLDRGATALELMVLNVPRLMTQDCLQQSRKVGDSPNITEYMFCAGYSDGSKDSCKGDSGGPHATHYRGTWYLTGIVSWGVGCATVGHFGVYTRVSQYIEWLQKLMRSEPRPGVLLRAPFP,1e+08,12.5 M⁻¹ s⁻¹,2.43
M298Q/H373F-FVIIa (enzyme) ANAFLEELRPGSLERECKEEQCSFEEAREIFKDAERTKLFWISYSDGDQCASSPCQNGGSCKDQLQSYICFCLPAFEGRNCETHKDDQLICVNENGGCEQYCSDHTGTKRSCRCHEGYSLLADGVSCTPTVEYPCGKIPILEKRNASKPQGRIVGGKVCPKGECPWQVLLLVNGAQLCGGTLINTIWVVSAAHCFDKIKNWRNLIAVLGEHDLSEHDGDEQSRRVAQVIIPSTYVPGTTNHDIALLRLHQPVVLTDHVVPLCLPERTFSERTLAFVRFSLVSGWGQLLDRGATALELQVLNVPRLMTQDCLQQSRKVGDSPNITEYMFCAGYSDGSKDSCKGDSGGPHATHYRGTWYLTGIVSWGQGCATVGFFGVYTRVSQYIEWLQKLMRSEPRPGVLLRAPFP,7.21e+07,96.4 M⁻¹ s⁻¹,4
S222A/T239V-FVIIa (enzyme) ANAFLEELRPGSLERECKEEQCSFEEAREIFKDAERTKLFWISYSDGDQCASSPCQNGGSCKDQLQSYICFCLPAFEGRNCETHKDDQLICVNENGGCEQYCSDHTGTKRSCRCHEGYSLLADGVSCTPTVEYPCGKIPILEKRNASKPQGRIVGGKVCPKGECPWQVLLLVNGAQLCGGTLINTIWVVSAAHCFDKIKNWRNLIAVLGEHDLSEHDGDEQARRVAQVIIPSTYVPGTVNHDIALLRLHQPVVLTDHVVPLCLPERTFSERTLAFVRFSLVSGWGQLLDRGATALELMVLNVPRLMTQDCLQQSRKVGDSPNITEYMFCAGYSDGSKDSCKGDSGGPHATHYRGTWYLTGIVSWGQGCATVGHFGVYTRVSQYIEWLQKLMRSEPRPGVLLRAPFP,7.49e+07,3 M⁻¹ s⁻¹,1.91
H257S/Q286R/Q366V-FVIIa (enzyme) ANAFLEELRPGSLERECKEEQCSFEEAREIFKDAERTKLFWISYSDGDQCASSPCQNGGSCKDQLQSYICFCLPAFEGRNCETHKDDQLICVNENGGCEQYCSDHTGTKRSCRCHEGYSLLADGVSCTPTVEYPCGKIPILEKRNASKPQGRIVGGKVCPKGECPWQVLLLVNGAQLCGGTLINTIWVVSAAHCFDKIKNWRNLIAVLGEHDLSEHDGDEQSRRVAQVIIPSTYVPGTTNHDIALLRLHQPVVLTDSVVPLCLPERTFSERTLAFVRFSLVSGWGRLLDRGATALELMVLNVPRLMTQDCLQQSRKVGDSPNITEYMFCAGYSDGSKDSCKGDSGGPHATHYRGTWYLTGIVSWGVGCATVGHFGVYTRVSQYIEWLQKLMRSEPRPGVLLRAPFP,7.1e+07,7.7 M⁻¹ s⁻¹,2

# Reference: US20090291890A1 (published 2009)
